Assay results: publication PMC5003112 (Nature chemical biology, 2016)

Columns and labels:
crystal structure = target: the molecule itself; assay: crystal structure
SEC = target: the molecule itself; assay: SEC

B1: Escherichia coli NudC (crystallization construct) (enzyme, E. coli)
chain: MDRIIEKLDHGWWVVSHEQKLWLPKGELPYGEAANFDLVGQRALQIGEWQGEPVWLVQQQRRHDMGSVRQVIDLDVGLFQLAGRGVQLAEFYRSHKYCGYCGHEMYPSKTEWAMLCSHCRERYYPQIAPCIIVAIRRDDSILLAQHTRHRNGVHTVLAGFVEVGETLEQAVAREVMEESGIKVKNLRYVTSQPWPFPQSLMTAFMAEYDSGDIVIDPKELLEANWYRYDDLPLLPPPGTVARRLIEDTVAMCRAEYE
Crystal structure
  stoichiometry N: 2

B2: E. coli NudC Y188Q (enzyme, E. coli K-12, UniProt P32664 1-257, looked up)
chain: MDRIIEKLDHGWWVVSHEQKLWLPKGELPYGEAANFDLVGQRALQIGEWQGEPVWLVQQQRRHDMGSVRQVIDLDVGLFQLAGRGVQLAEFYRSHKYCGYCGHEMYPSKTEWAMLCSHCRERYYPQIAPCIIVAIRRDDSILLAQHTRHRNGVHTVLAGFVEVGETLEQAVAREVMEESGIKVKNLRQVTSQPWPFPQSLMTAFMAEYDSGDIVIDPKELLEANWYRYDDLPLLPPPGTVARRLIEDTVAMCRAEYE
SEC
  binding result: binds

B3: E. coli NudC Y188A (enzyme, E. coli K-12, UniProt P32664 1-257, looked up)
chain: MDRIIEKLDHGWWVVSHEQKLWLPKGELPYGEAANFDLVGQRALQIGEWQGEPVWLVQQQRRHDMGSVRQVIDLDVGLFQLAGRGVQLAEFYRSHKYCGYCGHEMYPSKTEWAMLCSHCRERYYPQIAPCIIVAIRRDDSILLAQHTRHRNGVHTVLAGFVEVGETLEQAVAREVMEESGIKVKNLRAVTSQPWPFPQSLMTAFMAEYDSGDIVIDPKELLEANWYRYDDLPLLPPPGTVARRLIEDTVAMCRAEYE
SEC
  binding result: binds
